# Assay results reported in patent US20040091887.
# T1: bovine fibrinogen, P02672
# T1 chain 1: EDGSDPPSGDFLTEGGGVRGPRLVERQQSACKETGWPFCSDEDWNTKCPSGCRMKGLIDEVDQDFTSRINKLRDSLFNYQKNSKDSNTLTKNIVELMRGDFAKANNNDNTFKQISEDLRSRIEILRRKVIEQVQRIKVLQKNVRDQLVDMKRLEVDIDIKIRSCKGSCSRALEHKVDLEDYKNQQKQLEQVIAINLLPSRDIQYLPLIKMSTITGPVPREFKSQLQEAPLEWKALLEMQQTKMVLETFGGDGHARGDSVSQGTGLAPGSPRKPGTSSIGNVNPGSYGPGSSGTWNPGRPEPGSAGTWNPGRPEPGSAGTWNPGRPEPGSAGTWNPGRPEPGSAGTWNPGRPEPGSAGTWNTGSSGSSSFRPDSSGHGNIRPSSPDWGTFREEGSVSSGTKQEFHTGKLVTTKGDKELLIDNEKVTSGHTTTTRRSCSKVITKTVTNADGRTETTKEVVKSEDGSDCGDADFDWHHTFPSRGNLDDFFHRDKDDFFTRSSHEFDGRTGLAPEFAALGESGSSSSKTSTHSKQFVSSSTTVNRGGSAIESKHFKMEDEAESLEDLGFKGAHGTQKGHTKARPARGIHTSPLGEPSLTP
# T1 chain 2: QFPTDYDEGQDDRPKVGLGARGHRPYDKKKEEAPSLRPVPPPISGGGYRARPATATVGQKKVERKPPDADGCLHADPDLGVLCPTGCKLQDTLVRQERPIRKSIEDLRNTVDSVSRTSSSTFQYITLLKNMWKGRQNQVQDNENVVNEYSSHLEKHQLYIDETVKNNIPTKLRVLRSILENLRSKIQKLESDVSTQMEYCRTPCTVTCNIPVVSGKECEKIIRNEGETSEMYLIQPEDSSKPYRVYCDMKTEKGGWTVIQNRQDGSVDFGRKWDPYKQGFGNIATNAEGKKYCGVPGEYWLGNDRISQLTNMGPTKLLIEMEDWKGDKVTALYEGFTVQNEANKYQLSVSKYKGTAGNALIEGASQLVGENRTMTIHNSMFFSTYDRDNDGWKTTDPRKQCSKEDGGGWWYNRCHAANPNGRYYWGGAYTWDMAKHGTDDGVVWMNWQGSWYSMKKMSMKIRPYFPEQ
# T1 chain 3: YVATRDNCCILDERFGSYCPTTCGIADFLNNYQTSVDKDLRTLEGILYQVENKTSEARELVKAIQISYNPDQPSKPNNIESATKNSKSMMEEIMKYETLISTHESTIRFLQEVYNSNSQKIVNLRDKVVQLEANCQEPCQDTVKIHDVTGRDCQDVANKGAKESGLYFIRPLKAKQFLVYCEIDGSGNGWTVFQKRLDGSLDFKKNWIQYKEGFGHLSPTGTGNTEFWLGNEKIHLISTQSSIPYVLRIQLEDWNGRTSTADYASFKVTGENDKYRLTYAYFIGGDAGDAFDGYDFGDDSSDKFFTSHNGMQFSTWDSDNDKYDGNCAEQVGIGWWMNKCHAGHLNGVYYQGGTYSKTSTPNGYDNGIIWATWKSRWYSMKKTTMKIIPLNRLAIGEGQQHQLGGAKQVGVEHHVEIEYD
# Target: T1, bovine fibrinogen, P02672
Protein,"fibrinogenolytic assay, cleavage pattern on 10% SDS-PAGE: cleavage of the gamma chain","fibrinogenolytic assay, cleavage pattern on 10% SDS-PAGE: start of digestion of the B beta chain","fibrinogenolytic assay, cleavage pattern on 10% SDS-PAGE: time to complete digestion of the A alpha chain","fibrinogenolytic assay, cleavage pattern on 10% SDS-PAGE: time to complete digestion of the B beta chain",dose-dependent fibrinogenolytic assay in vitro: amount for complete digestion of the A alpha chain,dose-dependent fibrinogenolytic assay in vitro: amount for complete digestion of the B beta chain,dose-dependent fibrinogenolytic assay in vitro: amount for complete digestion of the gamma chain,time-dependent fibrinogenolytic assay in vitro: time to complete digestion of the A alpha chain,time-dependent fibrinogenolytic assay in vitro: time to complete digestion of the B beta chain,time-dependent fibrinogenolytic assay in vitro: time to complete digestion of the gamma chain
Mucroslysin recombinant fusion protein (protein) SSIILESGNVNDYEVVYPRKVSALPKGAVQPKYEDAMQYEFKVNGEAVVLHLEKNKGLFSEDYSETHYSPDGREITTYPSVEDHCYYHGRIHNDADSTASISACDGLKGYFKLQGETYPIEPLELSDSEAHAVFKYENVEKEDEAPKMCGVTQNWESDESIKKASQLYLTPEQQRFPQRYIKLAIVVDHGMYTKYSSNFKKIRKRVHQMVSNINEMCRPLNIAITLALLDVWSEKDFITVQADAPTTAGLFGDWRERVLLKKKNHDHAQLLTDTNFARNTIGWAYVGRMCDEKYSVAVVKDHSSKVFMVAVTMTHELGHNLGMEHDDKDKCKCDTCIMSAVISDKQSKLFSDCSKDYYQTFLTNDNPQCILNAPLRTDTVSTPVSGNEFLEAGEECDCGSPENPCCDAATCKLRPGAQCAEGLCCDQCRFKKKRTICRRARGDNPDDRCTGQSADCPRNGLYG,Mucroslysin protein also exhibited the ability to cleave the γ-chain of fibrinogen,the digestion of the Bβ-chain began at 18 hr,The Aα-chain of fibrinogen was completely digested at 18 hr after incubation,The Bβ-chain was completely digested after 36 hrs,,,,,,
recombinant fibrinlysin protein (protein) EQQRFPQRYIKLAIVVDHGMYTKYSSNFKKIRKRVHQMVSNINEMCRPLNIAITLALLDVWSEKDFITVQADAPTTAGLFGDWRERVLLKKKNHDHAQLLTDTNFARNTIGWAYVGRMCDEKYSVAVVKDHSSKVFMVAVTMTHELGHNLGMEHDDKDKCKCDTCIMSAVISDKQSKLFSDCSKDYYQTFLTNDNPQCILNAP,,,,,the Aα-chain of fibrinogen was completely digested with 4 µg of the refolded protein,The Bβ-chain was completely digested with 7 µg of the refolded protein,The γ-chain also was completely digested with 21 µg of the refolded protein,the Aα-chain of fibrinogen was completely digested at 5 hr after incubation,The Bβ-chain was completely digested after 7 hrs,the γ-chain was completely digested after 30 hrs
